Results: patent publication US20130225503A1, “TEX14 PEPTIDES AS NOVEL ANTITUMOR AGENTS” (Baylor Licnensing Group, priority 2009, published 2013)
“Also recorded” adds a separate entry of the source.

Assays:
Assay type in all cases: cell-based
[1] = target: T1, hinge region of human CEP55 (Homo sapiens, UniProt Q53EZ4); assay: Modified mammalian two-hybrid assay in HEK293T cells, TEX14 fragment binding to CEP55; settings: transfected HEK293T cells; FIG. 5C, 5E, 5F, FIG. 7
T1 construct: expressed in transfected cells; host or cells: HEK293T
T1 sequence (Q53EZ4 157-236 limits assumed): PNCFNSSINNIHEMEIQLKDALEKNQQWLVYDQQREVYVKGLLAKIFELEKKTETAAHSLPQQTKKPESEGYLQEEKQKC
Source text: (§1) A modified form of the CheckMate/Flexi vector mammalian two-hybrid system (Promega) was used to study the interactions of proteins in mammalian cells. A pGL4Cherry (mCherry/GAL4UAS/Hygro) vector was engineered from the pGL4.31 (luc2P/GAL4UAS/Hygro) vector by replacing the Luc2P firefly luciferase reporter sequence with the mCherry sequence. The pACT vector expresses a protein of interest, “X,” fused to a transcriptional activation domain (VP16-AD) and the pBIND vector expresses the other protein of interest, “Y,” fused to a DNA-binding domain (GAL4-BD) and Renilla luciferase by separate promoters. […]
(§2) Sequences encoding the truncated TEX14, CEP55, ALIX, or TSG101 fragments were cloned into the multiple cloning regions of the pACT and pBIND vectors. Some exemplary constructs used are summarized in FIGS. 6A and B. pACT (protein X), pBIND (protein Y), and pGL4Cherry (mCherry/GAL4UAS/Hygro) were transiently cotransfected into HEK293T cells using Fugene 6/HD transfection reagent, and the cells were examined 44 h later for red fluorescence by using an Axiovert 40 CFL microscope (Carl Zeiss). […] The cells were lysed by using Renilla luciferase assay reagent (Promega), and red fluorescence and Renilla luciferase were measured by using a Polar Star Omega microplate reader (BMG LabTech). […]

[2] = target: T2, ALIX-CEP interaction (Homo sapiens, UniProt Q53EZ4); assay: Competition assay using the mammalian two-hybrid system, ALIX-CEP55 interaction; settings: pcDNA3 overexpression in HEK293T cells; FIG. 6A, FIG. 7 left
T2 construct: expressed in transfected cells; host or cells: HEK293T
T2 sequence (Q53EZ4 157-236 limits assumed): T1 sequence (Q53EZ4 157-236 limits assumed)
Source text: as §1, §2

[3] = target: T3, TSG-CEP interaction (Homo sapiens, UniProt Q53EZ4); assay: Competition assay using the mammalian two-hybrid system, TSG101-CEP55 interaction; settings: pcDNA3 overexpression in HEK293T cells; FIG. 6B, FIG. 7 center
T3 construct: expressed in transfected cells; host or cells: HEK293T
T3 sequence (Q53EZ4 157-236 limits assumed): T1 sequence (Q53EZ4 157-236 limits assumed)
Source text: as §1, §2

[4] = tested on: full-length ALIX localization to the midbody; assay: Cotransfection with YFP full-length ALIX into HeLa cells, ALIX midbody localization and interconnected cells
Source text: The mouse TEX14 open reading frame (ORF) sequence was ligated into the BamHI and SalI sites of the pCMV-tag2 vector (Stratagene), which contains an N-terminal FLAG tag sequence. The mouse CEP55 ORF was cloned from testis cDNA and subcloned into the EcoRI and SalI sites of the pcDNA3 (Invitrogen) vector containing an N-terminal MYC tag sequence. The truncated and mutant TEX14 (TX, AAAX3A) and the full-length ALIX sequences were ligated into the BamHI and NotI or the NotI and XbaI sites, respectively, of the pcDNA3 vectors, while mCherry or YFP sequences were subcloned into the KpnI and BamHI sites. Purified plasmid DNA was obtained by using a QIAprep spin miniprep kit (Qiagen), and all constructs were sequenced for integrity.
HEK293T or HeLa cells were maintained in Dulbecco's modified Eagle medium (Invitrogen) supplemented with 10% fetal calf serum (SAFC Biosciences), 1% L-glutamine (Invitrogen), and penicillinstreptomycin (Invitrogen) and grown on poly-D-lysine (Sigma)-coated coverslips in culture plates at 37 C° in a humidified 5% CO2 atmosphere. For immunoprecipitation and immunoblot experiments, cells were seeded at 50 to 80% confluence in […] (Corning) and transiently transfected using Fugene 6/HD transfection reagent (Roche) according to the manufacturer's instructions. […]

TX: GPPX3Y region of human TEX14, the 60 amino acids from 754 to 813 (LRNIEQILDEVEMKQKEQEERMSLWATSREFTNAYKLPLAVGPPSLNYIPPVLQLSGGQK; UniProt Q8IWB6 754-813, looked up, fragment)
binding to CEP55 hinge region (mCherry/Renilla luciferase or mCherry/YFP ratio) [1]: strongly binds; also recorded: typically stronger than the ALIX-CEP or TSG-CEP interactions | effect of overexpression on ALIX-CEP interaction [2]: suppressed | effect of overexpression on TSG-CEP interaction [3]: suppressed | full-length ALIX localization to the midbody ([4]; HeLa cells cotransfected with pcDNA-mCherry-truncated TEX14 and pcDNA-YFP full-length ALIX): inhibits full-length ALIX localization to the midbody | interconnecting cells (intercellular bridges) in transfected cells ([4]; HeLa cells, FIG. 6G left): several interconnecting cells were visualized
